Columns and labels:
[1] = biological target: StayGold (Cytaeis uchidae (parent GFP)); test: SEC; Superdex 75 Increase 10/300 GL, ~2 mg ml^−1 (76 μM) protein loaded via 100 μl loop, 0.8 ml min^−1, 150 mM NaCl, 20 mM HEPES pH 7.2; monomer and dimer percentages from integrated peak areas; dimer to monomers
[2] = as above

stoichiometry N [1]	Substance	percent dimer (SEC peak areas) [2]	percent monomer (SEC peak areas) [2]
2	StayGold	the original StayGold is ~98% dimer	–
–	mStayGold (StayGold E138D)	–	the E138D mutant is more than 99% monomer

Reference: publication PMC11392804
